Legend:
[1] = biological target: T1, yPolη full-length (Saccharomyces cerevisiae) (UniProt Q04049); assay: fluorescence titration (2-aminopurine); conditions: 2-aminopurine at position 19 of the 41-mer template (X, written as A); 23°C, buffer A (composition not in material; without BSA for fluorescence); EMSA 10 nM DNA, 10-450 nM protein, 20 min, 4.5% native gel, 40 mM Tris in running …
T1 sequence: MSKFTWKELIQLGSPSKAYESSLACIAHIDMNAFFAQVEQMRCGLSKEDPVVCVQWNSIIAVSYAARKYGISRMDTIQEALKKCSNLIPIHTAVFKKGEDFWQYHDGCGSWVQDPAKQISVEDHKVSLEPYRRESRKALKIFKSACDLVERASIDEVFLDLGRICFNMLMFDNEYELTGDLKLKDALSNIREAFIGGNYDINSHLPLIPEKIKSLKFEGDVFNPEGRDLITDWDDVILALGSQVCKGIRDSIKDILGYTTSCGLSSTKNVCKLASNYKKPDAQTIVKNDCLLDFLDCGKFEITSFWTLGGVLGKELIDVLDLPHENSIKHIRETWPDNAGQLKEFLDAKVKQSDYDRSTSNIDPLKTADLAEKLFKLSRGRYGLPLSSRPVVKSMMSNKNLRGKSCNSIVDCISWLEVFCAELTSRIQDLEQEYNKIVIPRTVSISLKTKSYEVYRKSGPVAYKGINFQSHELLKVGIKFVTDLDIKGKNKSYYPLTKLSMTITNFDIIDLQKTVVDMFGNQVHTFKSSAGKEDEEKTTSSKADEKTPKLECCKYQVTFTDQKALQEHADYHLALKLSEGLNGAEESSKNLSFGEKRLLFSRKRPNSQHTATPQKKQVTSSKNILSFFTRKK

[2] = biological target: T2, yPolη truncated (catalytic core) (Saccharomyces cerevisiae) (UniProt Q04049); assay: fluorescence titration (2-aminopurine); conditions: 2-aminopurine at position 19 of the 41-mer template (X, written as A); 23°C, buffer A (composition not in material; without BSA for fluorescence); EMSA 10 nM DNA, 10-450 nM protein, 20 min, 4.5% native gel, 40 mM Tris in running …
T2 sequence: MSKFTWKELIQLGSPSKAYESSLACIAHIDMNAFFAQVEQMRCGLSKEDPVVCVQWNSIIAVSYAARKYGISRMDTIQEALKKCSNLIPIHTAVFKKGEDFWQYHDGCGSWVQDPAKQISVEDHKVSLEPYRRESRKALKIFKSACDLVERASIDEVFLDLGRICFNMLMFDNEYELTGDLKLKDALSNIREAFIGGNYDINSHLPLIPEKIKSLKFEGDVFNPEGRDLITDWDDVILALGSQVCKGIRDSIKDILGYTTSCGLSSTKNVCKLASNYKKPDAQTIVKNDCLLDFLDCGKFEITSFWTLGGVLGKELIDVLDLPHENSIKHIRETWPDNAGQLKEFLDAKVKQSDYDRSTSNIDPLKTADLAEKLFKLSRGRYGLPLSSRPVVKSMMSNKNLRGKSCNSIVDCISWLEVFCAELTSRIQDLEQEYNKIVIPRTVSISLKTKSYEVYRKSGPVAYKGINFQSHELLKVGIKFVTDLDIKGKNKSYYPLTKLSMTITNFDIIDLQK

With “CGCAGCCGTCCAACCAACTCA / GGACGGCATTGGATCGACACTGAGTTGGTTGGACGGCTGCG [F-8 21/41-mer]” the Kd [1] was 7 nM and the Kd [2] was 13 nM.
